{"source": "patent US20210309747A1", "about": "(I MAB BIOPHARMA US, published 2021)", "binders": {"B1": {"name": "B12-01 (antibody, V domains shown)", "VH": "QVQLLESGGGLVQPGGSLRLSCAASGFTFSSYWMSWVRQAPGKGLEWVANIKQDGSEKYYVDSVKGRFTISRDNAKNSLYLQMNSLRAEDTAVYYCARVALWDDAFDIWGQGTMVTVSS", "VL": "DIQMTQSPSTLSASVGDRVIITCRASRGISSWLAWYQQKPGKAPNLLISKASSLESGVPSRFSGSGSGTDFTLTISSLQPEDFATYYCQQSSSIPLTFGGGTKVEIK", "notes": "Variant of B12 with serine at the C-terminus of VH and DIQM at the N-terminus of VL; captured on protein A and detected with anti-human IgG Fc, so a human IgG; also called B12-01 antibody"}, "B2": {"name": "B12 (antibody, V domains shown)", "VH": "B1 VH with S119A", "VL": "B1 VL with D1N, M4L", "notes": "Fab phage clone converted into full-length IgG; also called 67C1-9"}, "B3": {"name": "B16 (antibody, V domains shown)", "VH": "B1 VH with E6D, S119A", "VL": "DIQMTQSPSSLSASVGDRVTITCRASQSISSWLAWYQQKPGKAPKLLIYKASSLESGVPSRFSGSGSGTEFTLTISSLQPDDFATYYCQHSNSLPLTFGGGTKVEIK", "notes": "Fab phage clone converted into full-length IgG; also called 67C3-10"}, "B4": {"name": "B04 (antibody, V domains shown)", "VH": "B1 VH with E6D, V99T, A100M, S119A", "VL": "DIQLTQSPSTLSASVGDRVTITCRASESISSWLAWYQQKPGKVPKLLIYKASSLESGVPSRFSGSGSGTDFTLTISSLQPEDFATYYCQQSYSTPPTFGQGTKVEIK", "notes": "Fab phage clone converted into full-length IgG; also called 67A3-15"}, "B5": {"name": "B06 (antibody, V domains shown)", "VH": "not shown", "VL": "DIQMTQSPSSLSASVGDRVTITCRASQGISSYLAWYQQKPGKAPKLLIYAASTLQSGVPDRFSGSGSGTDFTLTISSLQAEDVAVYYCQQYLSVPYTFGQGTKVEIK", "notes": "Fab phage clone converted into full-length IgG; also called 67A3-40"}}, "key": {"rat PDL1-His": {"target": "rat PDL1-His (rat, UniProt D4AE25 19-239)", "sequence (D4AE25 entry or part of it limits assumed)": "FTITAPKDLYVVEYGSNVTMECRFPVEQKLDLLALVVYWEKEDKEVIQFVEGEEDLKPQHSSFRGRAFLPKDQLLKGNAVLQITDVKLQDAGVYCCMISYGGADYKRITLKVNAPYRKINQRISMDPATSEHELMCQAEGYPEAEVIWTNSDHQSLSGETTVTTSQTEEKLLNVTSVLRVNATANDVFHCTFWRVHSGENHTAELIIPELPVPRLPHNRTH", "experiment": "ELISA, PDL1-His coated at 0.5 µg/ml", "procedure": "(§1) Human, cyno, rat and mouse PDL1-His proteins were coated at 0.5 μg/ml at 4° C. overnight. […] The plates were washed and then incubated with HRP conjugated mouse anti-human IgG Fc antibody followed by development with TMB substrate and analyzed by spectrophotometer at OD 450 nm."}, "mouse PDL1-His": {"target": "T1, mouse PDL1-His (mouse, UniProt Q9EP73 19-238, limits assumed)", "T1 construct": "not shown: His tag", "T1 sequence (Q9EP73 19-238 limits assumed)": "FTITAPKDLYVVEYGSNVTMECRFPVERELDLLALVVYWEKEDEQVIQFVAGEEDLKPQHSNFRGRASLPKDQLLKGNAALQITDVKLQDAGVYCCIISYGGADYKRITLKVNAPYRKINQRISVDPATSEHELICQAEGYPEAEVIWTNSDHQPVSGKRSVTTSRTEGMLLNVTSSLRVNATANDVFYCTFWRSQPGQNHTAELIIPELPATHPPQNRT", "experiment": "ELISA, PDL1-His coated at 0.5 µg/ml", "procedure": "as §1"}, "His-tagged human PD-L1 [1]": {"target": "T2, His-tagged human PD-L1 (human, UniProt Q9NZQ7 19-238, limits assumed)", "T2 construct": "also called Human PD-L1 protein; Human PDL1-His; not shown: His tag", "T2 sequence (Q9NZQ7 19-238 limits assumed)": "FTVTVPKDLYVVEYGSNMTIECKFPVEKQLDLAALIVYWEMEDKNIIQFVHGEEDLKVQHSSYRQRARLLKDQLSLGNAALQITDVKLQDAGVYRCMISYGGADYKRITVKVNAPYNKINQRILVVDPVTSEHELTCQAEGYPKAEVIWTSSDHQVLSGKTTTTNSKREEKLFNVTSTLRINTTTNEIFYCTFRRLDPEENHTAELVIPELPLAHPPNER", "experiment": "SPR, Biacore T200; B12-01 captured on protein A chip, human PD-L1 25 nM-1.56 nM injected", "from_the_text": "(§2) The ligand was allowed to associate for 120 s and dissociate for 600 s."}, "[2]": {"target": "T3, human PD-L1 on Raji cells (human, UniProt Q9NZQ7 19-290)", "T3 sequence (Q9NZQ7 19-290)": "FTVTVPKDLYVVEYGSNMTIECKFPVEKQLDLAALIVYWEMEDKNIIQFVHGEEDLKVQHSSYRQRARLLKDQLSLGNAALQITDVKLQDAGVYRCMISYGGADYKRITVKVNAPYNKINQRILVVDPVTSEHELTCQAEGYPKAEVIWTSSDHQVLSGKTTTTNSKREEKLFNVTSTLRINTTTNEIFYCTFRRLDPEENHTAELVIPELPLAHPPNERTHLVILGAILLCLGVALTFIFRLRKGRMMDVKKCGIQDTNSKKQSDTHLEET", "experiment": "cell-based or functional assay"}, "[3]": {"target": "T3, human PD-L1 on Raji cells", "experiment": "flow cytometry blocking assay on Raji-PDL1 cells; blocked ligand: biotinylated Avi- and His-tag human PD1 protein at 3 ug/mL, Streptavidin-PE, MFI", "procedure": "Raji cells over-expressing human PDL1 were seeded into the 96 well plate at a concentration of 1×10⁵ cells per well. […] Fluorescence was measured by flow cytometry and analyzed by Flowjo software to determine the mean fluorescence intensities (MFI)."}, "cyno PDL1-His": {"target": "cyno PDL1-His (cyno, UniProt G7PSE7 19-238)", "sequence (G7PSE7 entry or part of it limits assumed)": "as the sequence (Q9NZQ7 19-238 limits assumed) above, with A33T, A34S, S62N, R68Q, Q82R, F173L, T185A, T192I, H215L counted along it", "experiment": "ELISA, plate coated with PDL1-His at 0.5 ug/ml, detection with HRP mouse anti-human IgG Fc, OD 450nm", "procedure": "as §1"}, "His-tagged human PD-L1 [4]": {"target": "T2, His-tagged human PD-L1", "experiment": "ELISA, plate coated with PDL1-His at 0.5 ug/ml, detection with HRP mouse anti-human IgG Fc, OD 450nm", "procedure": "as §1"}, "His-tagged human PD-L1 [5]": {"target": "T2, His-tagged human PD-L1", "experiment": "Biacore T200 SPR, B12-01 captured on a protein A chip, human PD-L1-His injected at 25 nM-1.56 nM", "from_the_text": "as §2"}, "[6]": {"target": "T3, human PD-L1 on Raji cells", "experiment": "cell-based or functional assay", "remark": "listed apart in the source"}, "[7]": {"target": "T3, human PD-L1 on Raji cells", "experiment": "cell-based or functional assay", "remark": "listed apart in the source"}, "[8]": {"target": "T4, recombinant human PD-L1 (Sino Biological, Cat#: 10084-H08H) (human, UniProt Q9NZQ7 19-238)", "T4 construct": "Bought protein; also called human PD-L1 protein", "T4 sequence (Q9NZQ7 19-238 limits assumed)": "as the sequence (Q9NZQ7 19-238 limits assumed) above", "experiment": "ELISA, plate coated with human PD-L1 at 1 ug/ml, detection with goat anti-human IgG-HRP, OD450", "procedure": "To evaluate antigen binding activity, the antibodies were subjected to ELISA test. Briefly, microtiter plates were coated with human PD-L1 protein at 1 μg/ml in PBS, 100 μl/well at 4° C. overnight, then blocked with 100 μl/well of 1% BSA. 4-fold dilutions of humanized antibodies starting from 10 μg/ml were added to each well and incubated for 1-2 hours at RT. The plates were washed with PBS/Tween and then incubate with goat-anti-human IgG antibody conjugated with Horse Radish Peroxidase (HRP) for 1 hour at RT. After washing, the plates were developed with TMB substrate and analyzed by spectrophotometer at OD 450 nm."}}, "note": "Numbering of substitutions follows the chain as printed. Read-outs that look alike come from different tables or passages of the source."}
{"binder": "B1", "values": [{"measurement": "binding result", "setting": "rat PDL1-His", "value": "no binding"}, {"measurement": "binding result", "setting": "mouse PDL1-His", "value": "no binding"}, {"measurement": "Kd", "setting": "His-tagged human PD-L1 [1]", "value": 0.948, "unit": "nM"}, {"measurement": "EC50, NF-AT-luciferase activity, PD-1 Jurkat cells with Raji-PD-L1 cells", "setting": "[2]", "value": 0.098, "unit": "nM"}, {"measurement": "EC50", "setting": "[3]", "value": 0.14, "unit": "nM"}, {"measurement": "EC50 (read off the curve)", "setting": "cyno PDL1-His", "value": "~0.04", "unit": "nM"}, {"measurement": "EC50 (read off the curve)", "setting": "His-tagged human PD-L1 [4]", "value": "~0.03", "unit": "nM"}, {"measurement": "koff", "setting": "His-tagged human PD-L1 [5]", "value": 0.000795, "unit": "s⁻¹"}, {"measurement": "kon", "setting": "His-tagged human PD-L1 [5]", "value": 838000, "unit": "M⁻¹ s⁻¹"}]}
{"binder": "B2", "values": [{"measurement": "EC50 (NF-AT-luciferase RLU)", "setting": "[6]", "value": 0.439, "unit": "nM"}, {"measurement": "EC50 (NF-AT-luciferase RLU)", "setting": "[7]", "value": 0.545, "unit": "nM"}, {"measurement": "EC50", "setting": "[8]", "value": 0.142, "unit": "nM"}]}
{"binder": "B3", "values": [{"measurement": "EC50 (NF-AT-luciferase RLU)", "setting": "[6]", "value": 1.05, "unit": "nM"}, {"measurement": "EC50", "setting": "[8]", "value": 0.147, "unit": "nM"}]}
{"binder": "B4", "values": [{"measurement": "EC50 (NF-AT-luciferase RLU)", "setting": "[6]", "value": 2.34, "unit": "nM"}, {"measurement": "EC50", "setting": "[8]", "value": 0.19, "unit": "nM"}]}
{"binder": "B5", "values": [{"measurement": "EC50 (NF-AT-luciferase RLU)", "setting": "[6]", "value": 0.516, "unit": "nM"}, {"measurement": "EC50", "setting": "[8]", "value": 0.236, "unit": "nM"}]}
